Results taken from patent publication US20240261333A1, “NOVEL TARGETS FOR ENHANCING ANTI-TUMOR IMMUNITY” (THE BROAD INSTITUTE, INC., priority 2021, published 2024).

T1: B3GNT2 (Homo sapiens, UniProt Q9NY97)
T1 construct: The respective ORFs of candidate genes [CD274 (NM_014143), MCL1 (NM_021960), JUNB (NM_002229), and B3GNT2 (NM_006577)] were synthesized; expressed in transfected cells; host or cells: A375 melanoma cells (lentiviral ORF overexpression)
T1 sequence (Q9NY97 1-397): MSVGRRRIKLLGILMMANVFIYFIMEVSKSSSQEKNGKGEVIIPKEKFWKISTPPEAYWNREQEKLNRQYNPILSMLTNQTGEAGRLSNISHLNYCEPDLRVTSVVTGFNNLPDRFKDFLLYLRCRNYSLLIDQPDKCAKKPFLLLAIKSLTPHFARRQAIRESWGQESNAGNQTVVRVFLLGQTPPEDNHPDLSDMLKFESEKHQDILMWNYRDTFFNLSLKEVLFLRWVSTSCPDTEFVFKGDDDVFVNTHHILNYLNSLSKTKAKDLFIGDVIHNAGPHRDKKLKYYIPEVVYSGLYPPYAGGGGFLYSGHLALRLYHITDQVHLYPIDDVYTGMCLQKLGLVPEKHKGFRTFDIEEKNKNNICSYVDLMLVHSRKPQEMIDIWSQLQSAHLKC

B1: LSM12 (protein)
chain: AAPPGEYFSVGSQVSCRTCQEQRLQGEVVAFDYQSKMLALKCPSSSGKPNHADILLINLQYVSEVEIINDRTETPPPLASLNVSKLASKARTEKEEKLSQAYAISAGVSLEGQQLFQTIHKTIKDCKWQEKNIVVMEEVVITPPYQVENCKGKEGSALSHVRKIVEKHFRDVESQKILQRSQAQQPQKEAALSS
B2: C1orf68 (protein)
chain: MCDQQKQPQFPPSCVKGSGLGAGQGSNGASVKCPVPCQTQTVCVTGPAPCPTQTYVKYQVPCQTQTYVKCPAPCQRTYVKYPTPCQTYVKCPAPCQTTYVKCPTPCQTYVKCPAPCQMTYIKSPAPCQTQTCYVQGASPCQSYYVQAPASGSTSQYCVTDPCSAPCSTSYCCLAPRTFGVSPLRRWIQRPQNCNTGSSGCCENSGSSGCCGSGGCGCSCGCGSSGCCCLGIIPMRSRGPACCDHEDDCCC
B3: CAT (protein)
chain: ADSRDPASDQMQHWKEQRAAQKADVLTTGAGNPVGDKLNVITVGPRGPLLVQDVVFTDEMAHFDRERIPERVVHAKGAGAFGYFEVTHDITKYSKAKVFEHIGKKTPIAVRFSTVAGESGSADTVRDPRGFAVKFYTEDGNWDLVGNNTPIFFIRDPILFPSFIHSQKRNPQTHLKDPDMVWDFWSLRPESLHQVSFLFSDRGIPDGHRHMNGYGSHTFKLVNANGEAVYCKFHYKTDQGIKNLSVEDAARLSQEDPDYGIRDLFNAIATGKYPSWTFYIQVMTFNQAETFPFNPFDLTKVWPHKDYPLIPVGKLVLNRNPVNYFAEVEQIAFDPSNMPPGIEASPDKMLQGRLFAYPDTHRHRLGPNYLHIPVNCPYRARVANYQRDGPMCMQDNQGGAPNYYPNSFGAPEQQPSALEHSIQYSGEVRRFNTANDDNVTQVRAFYVNVLNEEQRKRLCENIAGHLKDAQIFIQKKAVKNFTEVHPDYGSHIQALLDKYNAEKPKNAIHTFVQSGSHLAAREKANL
B4: KRT6B (protein)
chain: ASTSTTIRSHSSSRRGFSANSARLPGVSRSGFSSISVSRSRGSGGLGGACGGAGFGSRSLYGLGGSKRISIGGGSCAISGGYGSRAGGSYGFGGAGSGFGFGGGAGIGFGLGGGAGLAGGFGGPGFPVCPPGGIQEVTVNQSLLTPLNLQIDPAIQRVRAEEREQIKTLNNKFASFIDKVRFLEQQNKVLDTKWTLLQEQGTKTVRQNLEPLFEQYINNLRRQLDNIVGERGRLDSELRNMQDLVEDLKNKYEDEINKRTAAENEFVTLKKDVDAAYMNKVELQAKADTLTDEINFLRALYDAELSQMQTHISDTSVVLSMDNNRNLDLDSIIAEVKAQYEEIAQRSRAEAESWYQTKYEELQITAGRHGDDLRNTKQEIAEINRMIQRLRSEIDHVKKQCANLQAAIADAEQRGEMALKDAKNKLEGLEDALQKAKQDLARLLKEYQELMNVKLALDVEIATYRKLLEGEECRLNGEGVGQVNISVVQSTVSSGYGGASGVGSGLGLGGGSSYSYGSGLGVGGGFSSSSGRATGGGLSSVGGGSSTIKYTTTSSSSRKSYKH
B5: ATXN2 (protein)
chain: MRSAAAAPRSPAVATESRRFAAARWPGWRSLQRPARRSGRGGGGAAPGPYPSAAPPPPGPGPPPSRQSSPPSASDCFGSNGNGGGAFRPGSRRLLGLGGPPRPFVVLLLPLASPGAPPAAPTRASPLGARASPPRSGVSLARPAPGCPRPACEPVYGPLTMSLKPQQQQQQQQQQQQQQQQQQQQQQQPPPAAANVRKPGGSGLLASPAAAPSPSSSSVSSSSATAPSSVVAATSGGGRPGLGRGRNSNKGLPQSTISFDGIYANMRMVHILTSVVGSKCEVQVKNGGIYEGVFKTYSPKCDLVLDAAHEKSTESSSGPKREEIMESILFKCSDFVVVQFKDMDSSYAKRDAFTDSAISAKVNGEHKEKDLEPWDAGELTANEELEALENDVSNGWDPNDMFRYNEENYGVVSTYDSSLSSYTVPLERDNSEEFLKREARANQLAEEIESSAQYKARVALENDDRSEEEKYTAVQRNSSEREGHSINTRENKYIPPGQRNREVISWGSGRQNSPRMGQPGSGSMPSRSTSHTSDFNPNSGSDQRVVNGGVPWPSPCPSPSSRPPSRYQSGPNSLPPRAATPTRPPSRPPSRPSRPPSHPSAHGSPAPVSTMPKRMSSEGPPRMSPKAQRHPRNHRVSAGRGSISSGLEFVSHNPPSEAATPPVARTSPSGGTWSSVVSGVPRLSPKTHRPRSPRQNSIGNTPSGPVLASPQAGIIPTEAVAMPIPAASPTPASPASNRAVTPSSEAKDSRLQDQRQNSPAGNKENIKPNETSPSFSKAENKGISPVVSEHRKQIDDLKKFKNDFRLQPSSTSESMDQLLNKNREGEKSRDLIKDKIEPSAKDSFIENSSSNCTSGSSKPNSPSISPSILSNTEHKRGPEVTSQGVQTSSPACKQEKDDKEEKKDAAEQVRKSTLNPNAKEFNPRSFSQPKPSTTPTSPRPQAQPSPSMVGHQQPTPVYTQPVCFAPNMMYPVPVSPGVQPLYPIPMTPMPVNQAKTYRAVPNMPQQRQDQHHQSAMMHPASAAGPPIAATPPAYSTQYVAYSPQQFPNQPLVQHVPHYQSQHPHVYSPVIQGNARMMAPPTHAQPGLVSSSATQYGAHEQTHAMYACPKLPYNKETSPSFYFAISTGSLAQQYAHPNATLHPHTPHPQPSATPTGQQQSQHGGSHPAPSPVQHHQHQAAQALHLASPQQQSAIYHAGLAPTPPSMTPASNTQSPQNSFPAAQQTVFTIHPSHVQPAYTNPPHMAHVPQAHVQSGMVPSHPTAHAPMMLMTTQPPGGPQAALAQSALQPIPVSTTAHFPYMTHPSVQAHHQQQL
B6: DNAJC3 (protein)
chain: GVNADVEKHLELGKKLLAAGQLADALSQFHAAVDGDPDNYIAYYRRATVFLAMGKSKAALPDLTKVIQLKMDFTAARLQRGHLLLKQGKLDEAEDDFKKVLKSNPSENEEKEAQSQLIKSDEMQRLRSQALNAFGSGDYTAAIAFLDKILEVCVWDAELRELRAECFIKEGEPRKAISDLKAASKLKNDNTEAFYKISTLYYQLGDHELSLSEVRECLKLDQDHKRCFAHYKQVKKLNKLIESAEELIRDGRYTDATSKYESVMKTEPSIAEYTVRSKERICHCFSKDEKPVEAIRVCSEVLQMEPDNVNALKDRAEAYLIEEMYDEAIQDYETAQEHNENDQQIREGLEKAQRLLKQSQKRDYYKILGVKRNAKKQEIIKAYRKLALQWHPDNFQNEEEKKKAEKKFIDIAAAKEVLSDPEMRKKFDDGEDPLDAESQQGGGGNPFHRSWNSWQGFNPFSSGGPFRFKFHFN
B7: MOV10 (protein)
chain: MPSKFSCRKLRETGQRFESFLAERGLDLETDRERLRTIYNHDFKPSYGTPAPGFSSMLYGMKIANLAFVTKTRVRFFKLDRWADVQLPEKRRIKPGSNISKQHRSLLARIFHDRAEYLHGKHGVDVEVQGPHEARDGQLLIHLDLNRKEVLTLRLRNGGSKPVTLTHLFPLCWTPQFVFYHGEQDLPCPLGPGESYELHIYCKTSIVGYFPATVLWELLGPGESGAEGAETFYIARFLAAVAHSPLAAQLKPTTPFKRPPRLTRNSVLTNRIEEGERPDRAKGYELELSLALGTYYPPILLRQLLPTLLQGPSIFTAPKEVAEIKAQLETTLKSRNYEVKLRLLLHLEELQMEHDIRHYDLDSVPMTWDPVDQNPRLLTLEVPGVAESRPSVLRGDHLFALLSSETQQDDPVTYKGFVHKVELDRVKLSFSTSLLSRFVDGLTFKVNFTFNRQPLRVQHRALELTGRWVLWPMLFPVASRGVSLLPSDVKFKLYDRSLESNPEQLQAMKHIVRGTTRPAPYIIFGPPGTGKTVTLVEAIKQVVKHLPKAHILACAPSNSGADLLCQRLRVHLPSSIYRLLAPSRDIRMVPEDIKTCCNWDAKKGEYVYPAKKHLQQYRVLITTLITASRLVSAQFPIDHFTHIFIDEAGHCMEPESLVAIAGLMDVKETGNPGGQLVLAGDPRQLGPVLRSPLALKHGLGYSLLERLLAYNSLYKKGPNGYDPQFITKLLRNYRSHPTILDIPNQLYYDGELQACADVVDRERFCRWEGLPQQGFPIIFHGVMGKDEREGNSPSFFNPEEAATVTSYLKQLLAPSSKKGKARLSPRNVGVISPYRKQVEKIRYCITKLDRELRGLDDIKDLKVGSVEEFQGQERSVILISTVRSSQSFVQLDLDFNLGFLKNPKRFNVAVTRAKALLIVVGNPLLLGHDPDWKTFLEFCKENGGYTGCPFPAKLDLQQGQDLLQGLSKLSPSTSGPRRHQNLPQEREGEGGLPLQVEPEWRNEL
B8: SLC25A6 (protein)
chain: MTEQAISFAKDFLAGGIAAAISKTAVAPIERVKLLLQVQHASKQIAADKQYKGIVDCIVRIPKEQGVLSFWRGNLANVIRYFPTQALNFAFKDKYKQIFLGGVDKHTQFWRYFAGNLASGGAAGATSLCFVYPLDFARTRLAADVGKSGTEREFRGLGDCLVKITKSDGIRGLYQGFSVSVQGIIIYRAAYFGVYDTAKGMLPDPKNTHIVVSWMIAQTVTAVAGVVSYPFDTVRRRMMMQSGRKGADIMYTGTVDCWRKIFRDEGGKAFFKGAWSNVLRGMGGAFVLVLYDELKKVI

What follows are molecules tested against T1, B3GNT2 (assay: Co-IP of FLAG-tagged B3GNT2 followed by mass spectrometry). Conditions: Co-IP followed by mass spectrometry of B3GNT2; C-term tag, FLAG pull-down.
Assay type: cell-based
Design: C-term IgG / C-term flag: unit not given here
Outline: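 FLAG-tagged B3GNT2 immunoprecipitated from cell lysate (HEPES, 1% Triton X-100, 150 mM NaCl) with anti-FLAG versus […], overnight at 4° C, then captured on Protein A/G magnetic beads for 4 h. Two biological replicates per condition. Peptides fractionated and analyzed by nano-LC on an Orbitrap Elite in data-dependent mode.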

Row | C-term flag | Molecule
1 | 4 | B1
2 | 2 | B2
3 | 0 | B3
4 | 331 | B4
5 | 3 | B5
6 | 3 | B6
7 | 3 | B7

Same assay, conditions: Co-IP followed by mass spectrometry of B3GNT2; C-term tag, IgG pull-down

Row | C-term IgG | Molecule
8 | 0 | B1
9 | 4 | B2
10 | 3 | B3
11 | 295 | B4
12 | 3 | B5
13 | 0 | B6
14 | 3 | B7

Same assay, conditions: Co-IP followed by mass spectrometry of B3GNT2; N-term tag, FLAG pull-down

Row | N-term FLAG | Molecule
15 | 4 | B1
16 | 13 | B2
17 | 6 | B3
18 | 370 | B4
19 | 4 | B5
20 | 0 | B6
21 | 4 | B7

Same assay, conditions: Co-IP followed by mass spectrometry of B3GNT2; N-term tag, IgG pull-down

Row | N-term IgG | Molecule
22 | 2 | B1
23 | 0 | B2
24 | 2 | B3
25 | 316 | B4
26 | 3 | B5
27 | 0 | B6
28 | 3 | B7

Same assay, conditions: Co-IP with FLAG antibody, C-terminally FLAG-tagged B3GNT2; mass spectrometry count, unit not given

Row | C-term flag | Molecule
29 | 19 | B8

Same assay, conditions: Co-IP with FLAG antibody, N-terminally FLAG-tagged B3GNT2; mass spectrometry count, unit not given

Row | N-term FLAG | Molecule
30 | 15 | B8

Same assay, conditions: Co-IP with IgG control antibody, C-terminally FLAG-tagged B3GNT2; mass spectrometry count, unit not given

Row | C-term IgG | Molecule
31 | 0 | B8

Same assay, conditions: Co-IP with IgG control antibody, N-terminally FLAG-tagged B3GNT2; mass spectrometry count, unit not given

Row | N-term IgG | Molecule
32 | 0 | B8
